B2: TPR domain (residues 166–330) of human AIP (aryl hydrocarbon receptor interacting protein), wild type (domain or fragment, UniProt O00170 166-330, looked up)
chain: DPWAMTDEEKAKAVPLIHQEGNRLYREGHVKEAAAKYYDAIACLKNLQMKEQPGSPEWIQLDQQITPLLLNYCQCKLVVEEYYEVLDHCSSILNKYDDNVKAYFKRGKAHAAVWNAQEAQADFAKVLELDPALAPVVSRELRALEARIRQKDEEDKARFRGIFSH
notes: Residues Asp 172 to Arg 325 were visible in the TOMM20 peptide structure; also called AIP TPR-domain; WT

The target in data set [1] is T1, full-length human HSP90β (human, UniProt P08238 1-724).
T1 construct: HSP90β, human, full length; also called FL-hHSP90β; intact HSP90
The data set can be described thus: ITC; twenty 1.9 µL aliquots of AIP TPR-domain at 350 µM injected into 30 µM human HSP90β; 20 mM Tris pH 7.5, 5 mM NaCl, 30°C. Background: In ITC the heat of successive injections is recorded.

Data set [2] concerns AIP. Conditions: cited from earlier work. The source says: Recently, mutations in aryl hydrocarbon receptor interacting protein (AIP), [2] have been linked to familial isolated pituitary adenomas (FIPA) [3]–[5], a condition most often characterized by young-onset growth hormone and prolactin-secreting pituitary tumors (reviewed by), which leads to acromegaly and gigantism. The human AIP gene encodes a 37 kDa protein of 330 amino acids that, based on similarities to other proteins, is predicted to have an N-terminal immunophilin-like domain [7] and a C-terminal tetratricopeptide repeat (TPR) domain. Typically, TPR domains consist of ...

Data set [3] deals with T2, AIP TPR-domain R304A mutant (Homo sapiens, UniProt O00170, R304A).
T2 construct: The TPR domain (residues 166–330) of human AIP; His tag (PreScission cleavable) (cleaved yes); made in house
T2 sequence (O00170 166-330 R304A): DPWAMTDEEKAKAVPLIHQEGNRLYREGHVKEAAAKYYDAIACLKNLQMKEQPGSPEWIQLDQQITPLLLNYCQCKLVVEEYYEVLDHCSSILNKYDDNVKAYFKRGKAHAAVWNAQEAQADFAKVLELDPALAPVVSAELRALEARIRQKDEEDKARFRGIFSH
In words: Isothermal titration calorimetry, R304A AIP TPR-domain. The data set is classed as binding. Conditions: ITC, 20 mM Tris pH 7.5, 5 mM NaCl, 30°C, peptide 350-600 µM injected into 30 µM TPR-domain. The protocol: (§1) The TPR domain (residues 166–330) of human AIP was expressed as a PreScission cleavable His-tagged protein from pTWO-E (pET-17b derived; personal communication, A. W. Oliver, Sussex University). The TPR domain was purified by talon-affinity chromatography (Clontech, Oxford, UK), then concentrated and desalted on a HIPrep 26/10 desalting column equilibrated in 20 mM Tris pH 7.5 containing 1 mM EDTA. The sample was then cleaved overnight with GST-tagged PreScision protease. The cleaved protein was subsequently passed through a GST column equilibrated in 20 mM Tris pH 7.5, 1 mM EDTA and 150 mM NaCl and then through a second Talon column to remove any remaining uncleaved protein. The flow through was then concentrated and subjected to superdex 75HR gel-filtration chromatography equilibrated in 20 mM Tris pH 7.5, 1 mM EDTA, 1 mM DTT and 500 mM NaCl. Pure TPR domain were concentrated and then desalted on a HIPrep 26/10 column equilibrated in 20 mM Tris pH 7.5 containing 1 mM EDTA. The protein was stored frozen at 2 mg ml^−1.
(§2) The heat of interaction was measured on an ITC200 microcalorimeter (Microcal), with a cell volume of 200 µL, under the same buffer conditions (20 mM Tris, pH 7.5, containing 5 mM NaCl) at 30°C. Twenty 1.9 µL aliquots of AIP TPR-domain at 350 µM were injected into 30 µM of human HSP90β. For peptide interactions twenty 1.9 µL aliquots of peptide ranging from 350 to 600 µM were injected into 30 µM of AIP TPR-domain. Heats of dilution were determined in a separate experiment by diluting protein or peptide into buffer, and the corrected data were fitted using a non-linear least-squares curve-fitting algorithm (Microcal Origin) with three floating variables: stoichiometry, binding constant and change in enthalpy of interaction. ATPase assays were previously described [44]–[46].

Data set [4] has as its target T3, AIP TPR-domain R304Q mutant (Homo sapiens, UniProt O00170, R304Q).
T3 construct: The TPR domain (residues 166–330) of human AIP; His tag (PreScission cleavable) (cleaved yes); made in house
T3 sequence (O00170 166-330 R304Q): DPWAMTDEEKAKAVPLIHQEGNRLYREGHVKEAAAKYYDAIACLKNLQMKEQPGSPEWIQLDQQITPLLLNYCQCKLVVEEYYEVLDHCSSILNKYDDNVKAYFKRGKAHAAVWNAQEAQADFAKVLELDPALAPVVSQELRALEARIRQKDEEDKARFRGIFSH
The data set can be described thus: Isothermal titration calorimetry, R304Q AIP TPR-domain. The note with it: ITC, 20 mM Tris pH 7.5, 5 mM NaCl, 30°C, peptide 350-600 µM injected into 30 µM TPR-domain. The data set is classed as binding. The protocol: as §1, §2

Data set [5] deals with T4, TPR domain (residues 166–330) of human AIP, WT (Homo sapiens, UniProt O00170).
T4 construct: The TPR domain (residues 166–330) of human AIP; His tag (PreScission cleavable) (cleaved yes); made in house
T4 sequence (O00170 166-330): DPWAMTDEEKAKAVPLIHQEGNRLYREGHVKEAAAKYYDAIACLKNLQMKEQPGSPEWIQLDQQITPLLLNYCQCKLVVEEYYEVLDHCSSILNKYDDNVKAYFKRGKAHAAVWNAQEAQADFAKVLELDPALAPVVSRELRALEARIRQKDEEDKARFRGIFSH
The data set can be described thus: Isothermal titration calorimetry, wild-type AIP TPR-domain. The data set is classed as binding. The note with it: ITC, range of the two titrations as given in the text. The protocol:
as §1, §2

For data set [6], the target named is TPR domain of human AIP, R304A mutant (human). In words: ITC; twenty 1.9 µL aliquots of peptide (350 to 600 µM) injected into 30 µM AIP TPR-domain; 20 mM Tris pH 7.5, 5 mM NaCl, 30°C.
The target of data set [7] is T5, TPR domain of human AIP, R304Q (disease-associated missense mutation) (human).
T5 sequence (O00170 166-330 with R304Q, looked up): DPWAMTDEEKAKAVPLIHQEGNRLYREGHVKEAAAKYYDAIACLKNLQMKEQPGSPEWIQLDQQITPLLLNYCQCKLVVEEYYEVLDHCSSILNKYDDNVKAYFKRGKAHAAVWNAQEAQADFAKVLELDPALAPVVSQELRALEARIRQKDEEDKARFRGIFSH
The description is as above.

For data set [8], the target named is B2. The description is as above. The note with it: both partners purified.
For data set [9], the target named is T1, full-length human HSP90β. In words: ITC; twenty 1.9 µL aliquots of AIP TPR-domain at 350 µM injected into 30 µM human HSP90β; 20 mM Tris pH 7.5, 5 mM NaCl, 30°C. The note with it: both partners purified.
Data set [10] addresses T1, full-length human HSP90β. The data set is described as above. The note with it: both partners purified. This is another data set of the same source.
Data set [11] relates to HSP90. In words: HSP90 ATPase assay. The data set is classed as biochemical. Conditions: 20-fold molar excess of full-length AIP.

Values joined by “and” are separate entries in the source; they are usually repeats but may differ in a detail not shown here. Identical values can stand only once. Like-named read-outs stand apart in the source and are kept apart here. Where no end group is shown, it is not given here.

T1 sequence (P08238 whole entry): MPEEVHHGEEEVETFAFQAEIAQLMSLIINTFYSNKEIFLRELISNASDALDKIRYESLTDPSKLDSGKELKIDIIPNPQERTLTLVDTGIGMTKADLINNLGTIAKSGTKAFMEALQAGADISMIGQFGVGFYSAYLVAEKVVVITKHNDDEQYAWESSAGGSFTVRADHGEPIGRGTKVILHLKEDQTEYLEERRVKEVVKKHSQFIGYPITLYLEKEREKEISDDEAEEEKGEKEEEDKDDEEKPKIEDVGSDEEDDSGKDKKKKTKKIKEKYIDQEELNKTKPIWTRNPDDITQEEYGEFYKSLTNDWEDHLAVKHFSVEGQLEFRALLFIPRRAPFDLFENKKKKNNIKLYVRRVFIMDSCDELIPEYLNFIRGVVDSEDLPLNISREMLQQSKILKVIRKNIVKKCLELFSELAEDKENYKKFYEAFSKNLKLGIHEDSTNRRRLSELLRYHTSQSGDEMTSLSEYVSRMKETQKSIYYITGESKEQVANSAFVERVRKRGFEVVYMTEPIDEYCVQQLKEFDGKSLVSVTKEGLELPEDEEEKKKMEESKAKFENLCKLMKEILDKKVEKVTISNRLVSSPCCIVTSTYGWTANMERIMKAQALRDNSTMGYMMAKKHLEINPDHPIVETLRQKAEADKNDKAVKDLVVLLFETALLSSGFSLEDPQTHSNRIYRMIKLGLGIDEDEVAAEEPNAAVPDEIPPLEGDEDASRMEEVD

As usually defined, the Kd is the free concentration of one partner at which half of the binding sites on the other are occupied at equilibrium, for simple one-to-one binding. Broadly, the stoichiometry N is the number of molecules, sites or subunits per partner or assembly. As to “TPR domain of human AIP, E192R mutant (domain or fragment)”, in data set [1], the Kd was determined as 11.1 µM, the dH is -4.11 kcal/mol and the stoichiometry N was determined as 0.47.
Consider `CO[C@H]1C[C@@H]2CC[C@@H](C)[C@@](O)(O2)C(=O)C(=O)N2CCCC[C@H]2C(=O)O[C@H]([C@H](C)C[C@@H]2CC[C@@H](O)[C@H](OC)C2)CC(=O)[C@H](C)/C=C(\C)[C@@H](O)[C@@H](OC)C(=O)[C@H](C)C[C@H](C)/C=C/C=C/C=C/1C` [rapamycin], for which, in data set [2], the “Binding to AIP” value is given as “does not bind”.
As to `CC[C@H](C)[C@H](NC(=O)[C@@H](NC(=O)[C@@H]1CCCN1C(=O)CNC(=O)[C@H](CO)NC(=O)CN)[C@@H](C)O)C(=O)N[C@@H](CCC(=O)O)C(=O)N[C@@H](CCC(=O)O)C(=O)N[C@H](C(=O)N[C@@H](CC(=O)O)C(=O)O)C(C)C` [GSGPTIEEVD], the Kd turned out to be 22.8 ± 1.6 µM in [3] and 31.1 ± 2.6 µM in data set [4].
Turning to `CSCC[C@H](NC(=O)[C@H](CCCNC(=N)N)NC(=O)[C@H](CO)NC(=O)[C@H](C)NC(=O)[C@H](CC(=O)O)NC(=O)[C@@H](N)CCC(=O)O)C(=O)N[C@@H](CCC(=O)O)C(=O)N[C@@H](CCC(=O)O)C(=O)N[C@H](C(=O)N[C@@H](CC(=O)O)C(=O)O)C(C)C` [EDASRMEEVD], the Kd in data set [5] was 14.4 to 18.6 µM; in [3], 15.6 ± 0.85 µM; in data set [4], 16.2 ± 1.1 µM.
For the molecule `C=CC[C@@H]1/C=C(\C)C[C@H](C)C[C@H](OC)[C@H]2O[C@@](O)(C(=O)C(=O)N3CCCC[C@H]3C(=O)O[C@H](/C(C)=C/[C@@H]3CC[C@@H](O)[C@H](OC)C3)[C@H](C)[C@@H](O)CC1=O)[C@H](C)C[C@@H]2OC` [FK506], in data set [2], the “Binding to AIP” value is “does not bind”.
With AQSLAEDDVE [AQSLAEDDVE], the Kd in [3] is 16.6 ± 0.5 µM; in [4], 22.5 ± 2.2 µM.

B1: AQSLAEDDVE peptide (human TOMM20 C-terminus) (peptide)
peptide: AQSLAEDDVE
notes: extreme C-terminus of human TOMM20; Only AEDDVE was visible in the crystal structure
In the case of B1, in data set [6], the Kd turned out to be 16.6 µM, the dH was -4.51 kcal/mol and the stoichiometry N was 0.69. In [7], this molecule showed a Kd of 22.5 µM, a dH of -6.07 kcal/mol and a stoichiometry N of 0.66. In data set [8], the Kd was 12.3 ± 0.5 µM, the dH was -6.77 kcal/mol and the “stoichiometry N” value was 0.87.
Regarding B2, in data set [9], the “stoichiometry N” value is 0.5. In [10], the Kd stood at 13.3 ± 1.8 µM, the dH is -4.55 kcal/mol and the “stoichiometry N” value was 0.3.

B3: TLEELDW peptide (PDE4A5) (peptide)
peptide: TLEELDW
notes: also called TLEELDW (hPDE4A5); PDE4A5 peptide
As to B3, in data set [8], the Kd was found to be 64.5 ± 3.2 µM, the dH was -4.42 kcal/mol and the “stoichiometry N” value came out at 0.89.

B4: GSGPTIEEVD peptide (human HSP70 C-terminus) (peptide)
peptide: GSGPTIEEVD
notes: C-terminus of human HSP70; also called HSP70 peptide
B4: in data set [6], the Kd is 22.8 µM, the dH was -5.46 kcal/mol and the stoichiometry N is 0.66. Moreover, in [7], the Kd was determined as 31.1 µM, the dH was -5.5 kcal/mol and the stoichiometry N is 0.84. Besides, in data set [8], binding was characterised by a dissociation constant (Kd) of 18.1 ± 1.9 µM, the dH is -6.35 kcal/mol and the “stoichiometry N” value was 0.63.

B5: DDTSRMEEVD peptide (human HSP90α C-terminus) (peptide)
peptide: DDTSRMEEVD
notes: extreme C-terminus of human HSP90α
In the case of B5, in data set [8], the Kd was found to be 9.5 ± 0.6 µM, the dH was -3.53 kcal/mol and the “stoichiometry N” value was determined as 1.2.

B6: full-length AIP: full-length aryl hydrocarbon receptor interacting protein, tested on HSP90 ATPase activity (protein, UniProt O00170 1-330, looked up)
chain: MADIIARLREDGIQKRVIQEGRGELPDFQDGTKATFHYRTLHSDDEGTVLDDSRARGKPMELIIGKKFKLPVWETIVCTMREGEIAQFLCDIKHVVLYPLVAKSLRNIAVGKDPLEGQRHCCGVAQMREHSSLGHADLDALQQNPQPLIFHMEMLKVESPGTYQQDPWAMTDEEKAKAVPLIHQEGNRLYREGHVKEAAAKYYDAIACLKNLQMKEQPGSPEWIQLDQQITPLLLNYCQCKLVVEEYYEVLDHCSSILNKYDDNVKAYFKRGKAHAAVWNAQEAQADFAKVLELDPALAPVVSRELRALEARIRQKDEEDKARFRGIFSH
modifications: full-length
Consider B6, for which the “Effect on the ATPase activity of HSP90” value in [11] was “did not influence”.

B7: MEEVD peptide (HSP90) (peptide)
peptide: MEEVD
notes: extreme C-terminal five residues of HSP90; also called MEEVD (HSP90)
For the molecule B7, in [8], the Kd is 12.6 ± 1.6 µM, the dH was -4.14 kcal/mol and the “stoichiometry N” value was 1.

B8: EDASRMEEVD peptide (human HSP90β C-terminus) (peptide)
peptide: EDASRMEEVD
notes: extreme C-terminus of human HSP90β; Only SRMEEVD was visible in the crystal structure
In data set [6], B8 yielded a Kd of 15.6 µM, a dH of -6.44 kcal/mol and a stoichiometry N of 0.96. Further, in [7], the Kd worked out at 16.2 µM, the dH was -6.42 kcal/mol and the stoichiometry N was 0.98. In [8], the Kd was 18.6 µM and 14.4 µM; the dH was -5.04 kcal/mol and -3.92 kcal/mol; the “stoichiometry N” value was 1.2 and 1.1.
